Here are results for 19 sequences from a protein production outcome set (Wang et al. 2014).

The nature of this data set: label from the status in PepcDB records.
On to “MGKDGLSDDQVSSMKEAFMLFDTDGDGKIAPSELGILMRSLGGNPTQAQLKSIIASENLSSPFDFNRFLDLMAKHLKTEPFDRQLRDAFKVLDKEGTGFVAVADLRHILTSIGEKLEPNEFDEWIKEVDVGSDGKIRYEDFIARMVAK”, for which the protein production entry is listed as “failed”. As to “MGKEFFLQHDIVIMYSILFVFIIILKMQFFTWFGMLACMFGIVFYTLNEYMTHRFLFHIKPPKNTFLLKMLRRLHYDHHVYPDDLKLLFLPVWFSIPSFTIYLLIAYGITKSVTITLSFGIGMIIMLLVYEWKHYIAHRPIRPVTKFGRWLKKQHILHHYKNEKFWFGVSNPVFDFIFGTLKDGKDVELSETARNLEKEKKTKVVR”, the protein production entry is reported as “failed”.

On to “MGKGCAASLWPTAIGPRMPRPLSLLPRPAGLMLRLVGSLVLTLWLVWLLADRLALLAPGEVIAALSGLPVWRLAAALLATAVSFWALGRYDGVAHRHFRTGLAARQARLCGMAAIGFSQFVGCGVLSGSFARWRMIGDLTPALALRLTTFVAITFLLALAFWASALCLIAPPLPGLRQTGVAGLALLLPITLVLFLLPRLRLGRFTLRLPSLRALGAILGWAALDLAAAAAVLWVLLPALSWTDLPLLMSAYVLALAAGLLSGAPGGLGAFELTLLALLPAIPGAELMAAVLAYRLIYVALPALAAVPLLLSPPDLRLGRQHRLPRRIHHHPPARPRAETAVVTQSRGYVLSGGFADMAVVETDQSLIMLFDPVCGGRHPDLYLLARRAAQRNLFALVYKCSARVAVSARRAGWRVRHVSDEATLVPADFTIAGSHRRQLRRKLRQAERAGLTVRRASTLPLTQMAAVDRLWQEANGRAWGLTMGRFAPDYLARQAVFLAWRGARLEGFVSFHRSRDEWCLDLMRTHPDAPEGTMHALVATALAATAAARVPRLSLAAVPAGRLGHRFDGLRQFKDSFAPRWQPLYMAAPGWTAIALAAADLARHVQAPPPLAAPDAQPAHDLDEEIEFASLTGT”, for which the protein production result was “failed”. The result for “MGKGDPKKPRGKMSSYAFFVQTCREEHKKKHPDASVNFSEFSKKCSERWKTMSAKEKGKFEDMAKADKARYEREMKTYIPPKGETKKKFKDPNAPKRPPSAFFLFCSEYRPKIKGEHPGLSIGDVAKKLGEMWNNTAADDKQPYEKKAAKLKEKYEKDIAAYRAKGKPDAAKKGVVKAEKSKKKKEEEEDEEDEEDEEEEEDEEDEDEEEDDDDE” reads “failed”; that for “MGKKKNKKTEVQQPDPMRKNWIMENMDSGVIYLLESWLKAKSQETGKEISDIFANAVEFNIVLKDWGKEKLEETNTEYQNQQRKLRKTYIEYYDREMK”, “not failed”.

For “MGKKLDALLGRSFKTNKFKSLITLALTRLSILKNQRQARLSQAISDVTELLKLGQHEHAYHRVDQVVKDQNTLDVLFFIHGYFTLCLDRIHLFEHNRDCPEELLEAVSGLLFAASRIGEFPELQEIRNVLISRFGKDLAARSIELRSNCGVDPKIIQKLSTRPPPKEVRMKALKEIAAENNIVLKLDQASTSTEGTTNMQGTSDVSKTKLTSKDGRGEGYGLSDSVKRGKKKYKDVADAAQAAFESAAHAAEAAQAAVELSQFSPRGHDSPGNIGGENSFHGSENKESEQEQEGNDDSSEGEGDVMSESKRSMSDSEDIIDVPVMSFREDPVKLLEKDTIIYDSEEETQPSVETITISKSKDEQNRMVGSNRADTRHVDHMVRSIEDPIMRKAGLKGPVSVRTRQVRGY”, the protein production entry is given as “failed”. The result for “MGKKTENLKIDAKKSFLKRIAKNVKVSEGERAVEDILRCIYRNQPISTKKIGQYVKLPLPIVSKVRSILERESLLKRDDKGAVLSKKGIDFVENELGLKLKSDMKCPVCSGRNIVFDEKFEKILKKHKTYAKLRPQVNTMIDQSFATPETATARAAIMADRGDLEGKRVLFVGDDDLASIPTAMTGLCSEVVVLDIDDRLLKLISEVSKKENLNIRTVKWDFKNELPSEFVNKFDTIFTDPPYTLNGAVLFMSRGIEALGDNGILYLAFSHKPVEEYIELQKSINNMNFLIYELIPGFNFYEGTEIIGNTTFLARLVGKNLKKIEVNSEKIYTGELKPTLRYYQCMNCKKIHEVGNKVKRIEDLTCECGGKK” reads “failed”.

As for “MGKMEPFRATGDGLFIMNEGNFQYGNATLSYYDPETKKVENEIFYRANAMKLGDVAQSMIVRDTIGWVVVNNSHVIFAISTNTFKEVGRITGLTSPRYIHFISDEKAYITQIWDYRIFIVNPKTYQITGYIECPDMTMETGSTEQMVQYGKYVYVNCWSYQNRILKIDTTTDKVVDQLTVGIQPTSLVMDKNFKMWTITDGGYKGSPYGYEEPSLYRIDAETFKIEKQFKFQLGDAPSEVQLNGAGDELYWINKDIWRMSVDEERVPVRPFLKYRDTKYYGLTVSPKNGDVYVADAIDYQQQGMIYRYTEDGELVDEFYVGIIPGAFCWKLEHHHHHH”, the protein production entry is “not failed”. The result for “MGKSDFIKVNVSNSHNDAVAFEVKLAKDLTVAQLKTKLEILTGGCAGTMKVQVFKGDTCVSTMDNNDAQLGYYANSDGLRLHVVDS” reads “not failed”; that for “MGLEQAVVDFFNHMGLLNLTVGNVVMIIVGLTLVYLAIRYEMEPLLLLPIGISAVLVNLPLSHMANWPLAPQLPPEIQENIFATISYLSQQYGPPGLFDLIYYLLIKTEVVPLLIFFGLGAMTDFGPMIADPKTALLGAAAQIGVFVAMLVALALGFNLKEAASIGIIGGADGPTTIYLTTKLAPHILSATAVAAYSYMSLVPLIQPPVIKALTTPEERRIRMEQLRPVSKREKILFPIASMIVIGLLVPSAAPLIGMLMIGNLFRESGVVQRLSKAAQEELMNIVTIFLGLGIGSTMRAESFLTPKTLMILALGVVAFASATAGGVLFGKIMMKISGGKINPMIGAAGVSAVPMSARVVQRLASEEDPGNFILMHAMGPNVAGVIGTAVVAGVFLSALG”, “failed”. “MGLFFAQNMMYNHTITVYDRNYELVKVIPDEVDLSKYGHSRFKGKYRGAPVEASFSHNGKYAWISNYQMYGPGFNNPGSDKCHPSQKTDKSFLYRINTETLKIDRVIPVGSVPKFVATSTDENLILVSNWCSWDLSVVDINQNQEIKRIKLGPYPRGIVVDPASETAYVAVMGSYNIAKVNLRDFSVQWLRNIGSSPRHLNIDPAGKYLYASLNGEGKIAKISLPQGNLVKKIATGNAPRSMVLSANGQTLYVVNYGEDTVSKVRTSDMKVLQKVKVEPDPIGITYDPQTREVWVACYSGNIMIFQDLEHHHHHH”: the protein production result is on record as “not failed”. The value for “MGLFQIKPDIHYGANSLDILRTLEMEKVFLVTDENMVKLKVINKVTNILKSRGIEAKVYSDVKPDPTDEEIIKGMLELSAHDPDCIIALGGGSPIDACKSMIYFTNQIKRAMGQNKKPKFIAIPTTSGTGSEVTSYAVVTTKDKKIPLSDSEMLPDIAILNPEFIKTLSPSIIADTGMDVLTHAIEAYVSKSRNLFTNTFAIGAIKTVFADLVSNFENPQLEKERINLQIASCMAGVAFSNAGLGINHSIAHSLGARFHKPHGRLNAVIMSEVIQFNARNKNAAKYYREIVEALGFSPKEDVEGVEILAKAIKMRAAKMGIPNSLSELGIPKEQYFDEMEGIIDQIENDMCTGENPRRFSRIEMKQLLTDLY” was “not failed”.

As to “MGLKIIHNEGIEMKLQLKADLGLLLVTFFWGASILLTKVGLEGIEEYNLIALRFIIAFLLSGLIFYKHLFKIDFKTVKYAFILASVLFIVYIFATFGTKYTSVSNAGFLLCLTVIFIPILSAIFLKHIPEQKVIVGIILTIIGIGLLTLTSEFKIGNGDIFCILSALFYAIHVIITGSVTKHVNSIALGVVQLGFVGLFSLIFSFIIETPKLPSTINSWLIILALSIFCTAVAFIVQVIAQQYTTPTHTGLIFSLEPVFSAGFAFVFTGETLTRKGYLGATLILVSVLIAEVDFKSLLRVNYKKNVE”, the protein production entry is given as “failed”. For the sequence “MGLLFFHNDVTDRFNPFIHQQDVYVQIDRDGRHLSPGGTEYTLDGYNASGKKEEVTFFAGKELRKNAYLKVKAKGKYVETWEEVKFEDMPDSVQSKLKLEHHHHHH”, the protein production entry is recorded as “not failed”.

In the case of “MGLPLVLDFDLYFCLMKCFIHQQLHLKVGYRLTERFVKTFGEERDGVWFYPRPEDIAARSYDDLRALQLSRRKAEYIVDVSRLIADGTLRLDDLEQMEDGEVMERLTAIRGIGPWTVQNFLLFGLEHHHHHH”, the protein production result was “failed”. In the case of “MGLQGQLSDVSSDSIPLMLLSLLAVFINHLRSFLLRLTSKSNPNLPVDDVSIASGLANIIVLADQLSLNRLFSYRCGDGGGGGSDCVVCLSKLKEGEEVRKLECRHVFHKKCLEGWLHQFNFTCPLCRSALVSDDCVSKTQRSVGRDLISCFSLH”, the protein production result is “failed”. For “MGLSKVEEKYRKSHEIFLKRLAALPKPEFDNTLPVHEKLDEIKKTVAEHQVTIICGETGSGKTTQLPKICLELGRGVAGLIGHTQPRRLAARSVAERIAEELKSEIGSAVGYKVRFTDHTSRDACVKLMTDGILLAETQTDRYLAAYDTIIIDEAHERSLNIDFLLGYLKQLLPRRPDLKVIITSATIDAERFSRHFNGAPVLEVSGRTYPVEILYRPLTGKDEDDAEVELTDAIVDAADELARHGEGDILVFLPGEREIRETAEALRKSTLRRNDEILPLFARLSHAEQHKIFHPSGAKRRIVLATNVAETSLTVPGIKYVIDTGLARVKRYSARAKVEQLHVEKISQAAARQRSGRCGRVSAGVCIRLFSEEDFNSRPEFTDPEIVRSNLAAVILRMASLNLGDVAAFPFLEMPDSRYINDGFQVLLELGAVEAVLEHHHHHH”, the protein production result is “failed”. The value for “MGLTKQYLRYVASAVFGVIGSQKGNIVFVTLRGEKGRYVAVPACEHVFIWDLRKGEKILILQGLKQEVTCLCPSPDGLHLAVGYEDGSIRIFSLLSGEGNVTFNGHKAAITTLKYDQLGGRLASGSKDTDIIVWDVINESGLYRLKGHKDAITQALFLREKNLLVTSGKDTMVKWWDLDTQHCFKTMVGHRTEVWGLVLLSEEKRLITGASDSELRVWDIAYLQEIEDPEEPDPKKIKGSSPGIQDTLEAEDGAFETDEAPEDRILSCRKAGSIMREGRDRVVNLAVDKTGRILACHGTDSVLELFCILSKKEIQKKMDKKMKKARKKAKLHSSKGEEEDPEVNVEMSLQDEIQRVTNIKTSAKIKSFDLIHSPHGELKAVFLLQNNLVELYSLNPSLPTPQPVRTSRITIGGHRSDVRTLSFSSDNIAVLSAAADSIKIWNRSTLQCIRTMTCEYALCSFFVPGDRQVVIGTKTGKLQLYDLASGNLLETIDAHDGALWSMSLSPDQRGFVTGGADKSVKFWDFELVKDENSTQKRLSVKQTRTLQLDEDVLCVSYSPNQKLLAVSLLDCTVKIFYVDTLKFFLSLYGHKLPVICMDISHDGALIATGSADRNVKIWGLDFGDCHKSLFAHDDSVMYLQFVPKSHLFFTAGKDHKIKQWDADKFEHIQTLEGHHQEIWCLAVSPSGDYVVSSSHDKSLRLWERTREPLILEEEREMEREAEYEESVAKEDQPAVPGETQGDSYFTGKKTIETVKAAERIMEAIELYREETAKMKEHKAICKAAGKEVPLPSNPILMAYGSISPSAYVLEIFKGIKSSELEESLLVLPFSYVPDILKLFNEFIQLGSDVELICRCLFFLLRIHFGQITSNQMLVPVIEKLRETTISKVSQVRDVIGFNMAGLDYLKRECEAKSEVMFFADATSHLEEKKRKRKKREKLILTLT” was “failed”. The result for “MGNGVQPLDPVAIQIGSISVKWYGVIIASAVVIALLLALSEANKRKMDKEIIVDLLIWAIPISIISARIYYVIFEWDFYKNNLGEIVKIWHGGIAIYGALIGAVLTAIIFSRIKKISFWQLADVVAPSLIIAQAIGRWGNFMNQEAHGAETTRSFLESLHLPDFIINQMYIDGAYYQPTFLYESLWNVLGFVILLIIRRTKIRRGELFLGYVIWYSFGRFFIEGMRTDSLMWGDFRVSQALSLLLIVLSIGIIIYRRLKMNPPYYMEDKFGKVVKKK” reads “not failed”.
